Reference: the RNAGym collection of RNA variant scans (doi:10.1073/pnas.2313332121)
Variants at the floor of the assay were thinned out.

B1: TPR 5TU (parent)
chain: GGAUCUUCUCGAUCUAACAAAAAAGACAAAUCUGCCACAAAGCUUGAGAGCAUCUUCGGAUGCAGAGGCGGCAGCCUUCGGUGGCGCGAUAGCGCCAACGUUCUCAACUAUGACACGCAAAACGCGUGCUCCGUUGAAUGGAGUUUAUCAUG

Variants of: B1
Experiment: polymerase ribozyme fitness, log enrichment relative to wild type (log ratio); higher = more active; in vitro selection for triplet polymerase activity
Outline: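 One round of in vitro selection, in triplicate, was applied to PCR-built, transcribed mutant libraries of each subunit of a heterodimeric triplet polymerase ribozyme. The steps were annealing with a biotinylated primer, partner subunit and triplets, incubation frozen at −7 °C, gel excision of extended constructs, streptavidin-bead capture and RT-PCR. Fitness is the logarithm, base 2, of genotype enrichment over wild-type enrichment from inverse-variance-weighted replicate averages of Illumina-sequenced inputs and outputs, keeping genotypes with ≥10 input reads and ≥1 read per output.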

Row | Variant | polymerase ribozyme fitness (log ratio)
1 | A39U U53A | -2.91
2 | A39C C149U | -2.97
3 | A3G U13A G42C C75U A138U | ≤ -4.2
4 | A47U G83C A142G | -2.42
5 | U78A G81A C93G A97U U151C | ≤ -4.2
6 | U33C C85U A119G | -3.71
7 | C51G G62U G92A C96A | ≤ -4.2
8 | U4C C14U G42A G84A C105G | ≤ -4.2
9 | A47C U151G G152A | -4.19
10 | G50U A73U G84A U109G | ≤ -4.2
11 | A3U G11C U44A G58C G62A G68A G94C | ≤ -4.2
12 | C85U G126A A142G | -0.307
13 | G11U G42C G68A C85U G128U C132G U139G U148A | ≤ -4.2
14 | G34A A66U C75U A137G | ≤ -4.2
15 | C51G U53G C75A C103A | ≤ -4.2
16 | G83U A121U | -0.341
17 | A24G C57A G59U C75A U90G C103G C108U A110C G133U G141C | ≤ -4.2
18 | G59C C87G | ≤ -4.2
19 | C63U C99G U151A | ≤ -4.2
20 | G83C U104G | -2.14
21 | G59U A66G A91G G100U U134A G143A A147G A150C | ≤ -4.2
22 | G25U G48C A52G C54G C57A A60G C96G U101G | ≤ -4.2
23 | C5A A21G A41C A64U C85A C96U A110U G117U | ≤ -4.2
24 | A17G A52C | -0.98

Row | Variant | polymerase ribozyme fitness (log ratio)
25 | G34A G46A C76G G136A U144A | ≤ -4.2
26 | C54G G83U G141U | -1.56
27 | C8G A29U A41G U61A G68A U82C A89G C116U | ≤ -4.2
28 | C14G U15G C54U G58U C87G C105U G143A | ≤ -4.2
29 | U53A C57G C95G | -4.01
30 | A26U G59C C103G A106C C132U | ≤ -4.2
31 | C69G A89U | -1.45
32 | C10A A41C C76A A91U C96G A121C U127G | ≤ -4.2
33 | U15G U53A A91G | -2.83
34 | G34U A106G | -0.622
35 | U44C A89U C103A A120U | ≤ -4.2
36 | A20G C85G | -2.92
37 | U15G A30G C54A | ≤ -4.2
38 | A24U G84A G94U C96A A121U G126U U135A | -4.1
39 | C57U C75A G88C G133U | ≤ -4.2
40 | G11U C14G A26G U33G C57A C99G A120G | ≤ -4.2
41 | G42A C51U A64C G80A U127A | ≤ -4.2
42 | C18U A40G C57G C95U | -3.91
43 | C69U C85U U127G | -3.4
44 | C93G U144A | -2.68
45 | G59A A60C U61A G81A C103G | ≤ -4.2
46 | C14A A17G U31A G59A C75G C95U U101G A113U A121U | ≤ -4.2
47 | A40C A52C | -1.04
48 | G100A G124A | ≤ -4.2

Row | Variant | polymerase ribozyme fitness (log ratio)
49 | G34A A47U G50A C63U | -2.2
50 | A49G C54U U109G | -2.26
51 | U6C G124C C129A | -4.16
52 | G62A U82A | -0.432
53 | A3C A22U A49U A52G U56A | -3.02
54 | U55A G81A G86A U109G A150G | ≤ -4.2
55 | U101A | 0.177
56 | C99A C131G | ≤ -4.2
57 | C5A U7C G92C U139G | -1.27
58 | U53A C99U | -2.58
59 | G50U U56A A91G C116U | -2.81
60 | C43U U78A C85A A115C | ≤ -4.2
61 | A37C C69G G70A C116A | -3.56
62 | G58U G94U G140U | -3.9
63 | G62C G92C | -3.09
64 | A22G C51U G83A | 0.818
65 | C38U C63G A97U G143C | -3.67
66 | A17C C38U A41C A60C | -1.39
67 | A23G U56A A97G A115G | -3.42
68 | G11U C18U G84U | -3.2
69 | C54G A97G | -0.818
70 | C10G A41G A115G | ≤ -4.2
71 | U44A G68U G92U A98G C99G | ≤ -4.2
72 | U9A A16U U56A G84A C131U | ≤ -4.2

Row | Variant | polymerase ribozyme fitness (log ratio)
73 | U56A G81A G126U U135C A138C G141C | ≤ -4.2
74 | G83C U104G C116U | -1.3
75 | G50A C57A U127A G143U | -4.04
76 | G81U C85G A89C C93G | ≤ -4.2
77 | C8G A147C | ≤ -4.2
78 | C8U A24U U55G C69U G74U C87A A138U | ≤ -4.2
79 | A26U C118G | -2.12
80 | A24U A41U G62C G70C C85G G152A | ≤ -4.2
81 | C14U A20C A39G A52G U56A C96A A121U | -4
82 | U13G A52C C85G G86U C129G | ≤ -4.2
83 | G81C U135C | -2.22
84 | C54G C108U | -4.19
85 | A22U G83C G84A U101A C123A | -4.08
86 | U56A C72U C76U C85U | -1.17
87 | C35U C51U A52C C76G C93G A115U | ≤ -4.2
88 | A73G U134C | 0.53
89 | A91U U139A G140C G143C | ≤ -4.2
90 | C96G A98U | -0.873
91 | A39U A60U U146A | -3.58
92 | A3G C5U C35U C85U A106G | 0.235
93 | G86A C103U | -1.01
94 | G34C G74A U109A C123U C149U | ≤ -4.2
95 | C8U A52G | -3.63
96 | A47C U56G A91U C96G C118U A122C C131U U139C U148A | ≤ -4.2

Row | Variant | polymerase ribozyme fitness (log ratio)
97 | A12U C36G G92C A147G | ≤ -4.2
98 | U53G A137G | -2.32
99 | A22C C57A C118U | -1.03
100 | A17G U90C C93U C105G A122G G143C | ≤ -4.2
101 | C27A G50A C54U C95A | ≤ -4.2
102 | C18U U31G A37C C54U A91C U134C U146C | ≤ -4.2
103 | C85A G126U | -0.409
104 | G25C C54U A73G G84A C85A A89C | ≤ -4.2
105 | C38U U45G U55A A60U G71A | ≤ -4.2
106 | A41C A49C C75U C85A C105A A137U A142C G143U | ≤ -4.2
107 | U6A G62A C76A A91U A121U C123A A138C G141U | ≤ -4.2
108 | C14U G50A G58C A121C | -3.27
109 | C93G A98C G143C | -4.05
110 | U82A C95G C118U G126C | -2.5
111 | G88C G126C | ≤ -4.2
112 | A16G A17U A52C A91U C93U U111G C123U G124U G133A | ≤ -4.2
113 | U53A G71A C75G C76U G86A A107U C108U | ≤ -4.2
114 | C27G G62A A64G A73C G88U C99U A107U G124A U130C U148A | ≤ -4.2
115 | A24G C32A C38A U45A C57U A106U C118U | ≤ -4.2
116 | A89U A122U | -0.615
117 | G50U A91G | -2.52
118 | G83A U134A | -2.04
119 | C76A A89C | -0.238
120 | G133U U135A U139G U144G A150U | -4.1

Row | Variant | polymerase ribozyme fitness (log ratio)
121 | U15A C75G C108U | -4.16
122 | A23U C27G A37U C95G A110G G140C | -3.86
123 | A40U A41U G46A C57A C87A G92U | 0.0643
124 | G84U C116A | -0.432
125 | C103A U109G | -3.53
126 | G86A C114U | -2.15
127 | C27U G58A G59C C99U U102G A120C C125U | ≤ -4.2
128 | U44A G50A U77A U78A C93G A115C G133A G141A | -4.14
129 | G94C U135A G141A | -2.22
130 | C103U U134A | -2.39
131 | G84U U135A | -2.85
132 | G86U C118U C125U | -4.01
133 | G42A G100U | ≤ -4.2
134 | G84U A106G U109A A121U C131A G141A U145A | ≤ -4.2
135 | C35U C87U A107G G126A G136U G140U | ≤ -4.2
136 | A40G C54A G68A G92A | ≤ -4.2
137 | A19C A30U G50A A73C G80U G86A C118A U145G | ≤ -4.2
138 | C10A A66U G81A G94U U134A | ≤ -4.2
139 | A41G C57A G59A G68U | ≤ -4.2
140 | C76A C87U | -2.16
141 | C5A G25C A41C C85U A89C A115G C132G U146C U148G | ≤ -4.2
142 | G46C G50C G59U C118U G126C | ≤ -4.2
143 | C57U C96U | -0.201
144 | A19U C57G C96G C116G | -0.687

Row | Variant | polymerase ribozyme fitness (log ratio)
145 | U45A U77G G84U C118U | ≤ -4.2
146 | U6G A21C G152A | -2.84
147 | U13A A28U C43U G65A A106G | ≤ -4.2
148 | A41C C96U A107U C131A G133A U146C | ≤ -4.2
149 | A37C C72G C79A | ≤ -4.2
150 | C5G C54A G65C A66G C85U | ≤ -4.2
151 | A26G A41C G94A A115C | -3.45
152 | A52C C85U A121C U134C A142C | -2.29
153 | A20C A41U G59A A60U C69G G86A C103G | ≤ -4.2
154 | A21C G50A A122U | -1.39
155 | A29U C38U G86A | ≤ -4.2
156 | C14G A22C A73U | -3.92
157 | A39G A41G A73G G86C G92U | ≤ -4.2
158 | A20C A52G A142G | -2.02
159 | G128C | -2.21
160 | C10G U146G | -4.19
161 | A29C A47U C76G C79A A97U C99A C125G U134A U144G | ≤ -4.2
162 | G83A G141C | -1.87
163 | C18A A20G G46C U56C G94C C105G A122U | -0.89
164 | A16C U33A C54A C85A A91G C125G G133U | ≤ -4.2
165 | C54U C96U | -0.41
166 | A39U A40C C79A U82C C96A U109G A119U G143A | ≤ -4.2
167 | U6C G117C | -0.247
